The results in this text go back to patent publication US20240368269A1 (Memorial Sloan Kettering, published 2024).

Sequences and labels used below:
T1: DLL3 (target in the Fab-Zap internalization assay) (UniProt Q9NYJ7 27-618, limits assumed)
T1 sequence (looked up): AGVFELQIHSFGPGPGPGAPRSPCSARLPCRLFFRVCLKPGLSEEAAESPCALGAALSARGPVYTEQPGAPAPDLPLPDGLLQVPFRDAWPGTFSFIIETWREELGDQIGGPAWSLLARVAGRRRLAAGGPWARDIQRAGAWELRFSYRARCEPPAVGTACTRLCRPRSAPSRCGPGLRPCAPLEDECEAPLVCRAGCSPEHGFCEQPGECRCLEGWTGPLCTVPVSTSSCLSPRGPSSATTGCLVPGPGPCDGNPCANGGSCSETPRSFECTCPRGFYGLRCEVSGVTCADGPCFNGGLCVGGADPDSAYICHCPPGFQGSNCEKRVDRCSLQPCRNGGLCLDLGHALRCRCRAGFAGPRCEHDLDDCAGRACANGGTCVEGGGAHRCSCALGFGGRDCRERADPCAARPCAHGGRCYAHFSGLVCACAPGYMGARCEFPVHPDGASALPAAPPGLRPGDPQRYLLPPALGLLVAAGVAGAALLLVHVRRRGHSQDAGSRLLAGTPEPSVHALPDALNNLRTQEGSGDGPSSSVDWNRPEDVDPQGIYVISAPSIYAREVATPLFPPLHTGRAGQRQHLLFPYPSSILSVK

B1: D8 (antibody, V domains shown)
VH: QVQLVQSGAEVKKPGASVKVSCKASGYTFTTYYMHWVRQAPGQGLEWMGIINPSGGSTSYAQKFQGRVTMTRDTSTSTVYMELSSLRSEDTAVYYCARQGHYIGNYLDYWGQGTLVTVSS
VL: not shown
B2: C22 (antibody, V domains shown)
VH: B1 VH with T31S, Q99V, G100A, H101D, Y102I, I103V, N105A, Y106T, L107F
VL: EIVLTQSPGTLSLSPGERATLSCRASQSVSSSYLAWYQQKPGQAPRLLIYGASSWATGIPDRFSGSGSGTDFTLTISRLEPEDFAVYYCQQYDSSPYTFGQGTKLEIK
B3: L12 (antibody, V domains shown)
VH: B1 VH with T31S, T58R, G100L, H101E, Y102L, I103L, Y106A, L107F, Y109I, L115M
VL: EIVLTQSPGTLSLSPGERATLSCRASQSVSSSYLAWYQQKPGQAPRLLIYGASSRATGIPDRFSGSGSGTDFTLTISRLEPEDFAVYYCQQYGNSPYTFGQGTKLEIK
B4: J23 (antibody, V domains shown)
VH: B1 VH with T31S, P53Y, T58K, A92G, H101R, I103S, N105S
VL: not shown
B5: M11 (antibody, V domains shown)
VH: QVQLVQSGAEVKKPGASVKVSCKASGYTFTSYYIHWVRQAPGQGLEWMGIINPSGGSKSYAQKFQGRVTMTRDTSTGTVYMELSSLRSEDTAVYYCAGQLELLGNAFDIWGQGTMVTVSS
VL: not shown
B6: P4 (antibody, V domains shown)
VH: EVQLVESGGGLVKPGGSLRLSCAASGFTFSFYSMNWVRQAPGKGLEWVSSISSSSSYIYYADSVKGRFTISRDNAKNSLYLQMNSLRAEDTAVYYCARNYDFWRGAFDIWGQGTMVTVSS
VL: not shown
B7: G23 (antibody, V domains shown)
VH: QVQLVQSGAEVKKPGASVKVSCKASGYTFTSYYIHWVRQAPGQGLEWMGIIDPSDGSTNYAQKFQGRVTMTRDTSTSTVYMELSSLRSEDTAVYYCARDREYNYYGLDVWGQGTTVTVSS
VL: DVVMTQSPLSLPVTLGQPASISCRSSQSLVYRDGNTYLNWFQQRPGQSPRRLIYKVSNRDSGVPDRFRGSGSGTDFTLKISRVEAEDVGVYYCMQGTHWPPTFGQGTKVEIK
B8: K19 (antibody, V domains shown)
VH: QVQLVQSGAEVKKPGASLKVSCKTSGYTFNSYYMHWVRQAPGQGLEWMGINNPSGGTTSYAQKFQGRVTMTRDTSTSTVYMELSSLRSEDTAVYYCARDWGEQYGMDVWGQGTTVTVSS
VL: not shown
B9: C8 (antibody, V domains shown)
VH: EVQLVESGGGLVQPGGSQRLSCAASGFTFSSYWMNWVRQAPGKGLEWVANIKEDGSEKYYVDSVKGRFTISRDNAKNSLYLQMNSLRAEDTAVYYCARDPGWAPFDYWGQGTLVTVSS
VL: DIQMSQSPSSLSASVGDRVTITCRASQGISNYLAWFQQKPGKAPKSLIYAASSLQSGVPSKFSGSGSGTDFTLAISSLQPEDFATYYCQQYNSFPYTFGQGTTLEIK
B10: O24 (antibody, V domains shown)
VH: QVQLVQSGAEVKKPGASVKVSCKASGYTFTSYYLHWVRQAPGHGLEWMAIINPSGGSTSYAQKFLGRVTMTRDTSTNTVYMELSSLRSEDTAVYYCARERQQLDYYYFAMDVWGQGTTVTVSS
VL: B9 VL with S5T, A74T, F94Y, Y96P, T103K, L104V
B11: E9 (antibody, V domains shown)
VH: QVQLVQSGAEVKKPGASVKVSCKASGYTFTSYYMHWVRQAPGQGLEWMGVINSSGGSTSYAQKFQGRVTMTRDTSTSTVYMDLSSLRSEDTAVYYCARGYCTNGVYYDEDFDYWGQGTLVTVSS
VL: B9 VL with S5T, N31H, K45T, A74T, F94Y, Y96L, Q100G, T103K, L104V
B12: J8 (antibody, V domains shown)
VH: QVHLVQSGAEVKKPGASVKVSCKASGYTFTIYYIHWVRQAPGQGLEWMGIINPSGGSTSYAQKFQGRVTMTRDTSTSTVYMELSSLRSEDTAVYYCSGNDYVDYVTTDYYGMDVWGQGTTVTVSS
VL: B9 VL with S5T, A74T, F94S, T103K
B13: N10 (antibody, V domains shown)
VH: QVQLVQSGAEVKKPGASVKVSCKASGYTFTGYYMHWVRQAPGQGLEWMGWINPHSGAPNSAQKFQVRVTMTRDTSISTAYMELSRLRSDDTAVYYCARDSSGWYGDAFDIWGQGTMVTVSS
VL: not shown
B14: G3 (antibody, V domains shown)
VH: QVQLQESGPGLVKPSETLFLTCTVSGGSISSYYWTWIRQPAGKGLEWIGRIYTSGSTNYNPSLKSRVTMSVDTSKNQFSLKLSSVTAADTAVYYCAREDWESWTFDIWGQGTMVTVSS
VL: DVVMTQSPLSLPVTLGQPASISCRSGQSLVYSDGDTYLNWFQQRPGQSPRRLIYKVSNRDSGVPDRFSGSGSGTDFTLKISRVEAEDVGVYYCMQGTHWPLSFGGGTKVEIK
B15: O18 (antibody, V domains shown)
VH: QVQLQESGPGLVKPSETLSLTCTVSGGSINSYYWSWIRQPPGKGLEWIGYIFYSGITNYNPSLKSRVTISLDTSKNQFSLKLSSVTAADTAVYYCARIGVAGFYFDYWGQGTLVTVSS
VL: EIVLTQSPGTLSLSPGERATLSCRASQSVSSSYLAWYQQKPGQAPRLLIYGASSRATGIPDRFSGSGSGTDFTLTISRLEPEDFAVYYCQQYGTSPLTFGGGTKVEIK
B16: F9 (antibody, V domains shown)
VH: QVQLVQSGAEVKKPGASVQVSCKASGYTFTSYYMHWVRQAPGQGLEWMGIINPSGGSTSYAQKFQGRVTMTRDTSTSTVYMELSSLRSEDTAVYYCARQGGAQWLVLAFDIWGQGTMVTVSS
VL: EIVLTQSPGTLSLSPGERATLSCRASQSVSSYLAWYQQKPGQPPRLLIYGASSRATGIPDRFSGGGSGTDFTLTISRLEPEDFAVYYCQQYDSSPYTFGQGTKLEIK
B17: G16 (antibody, V domains shown)
VH: B16 VH
VL: B16 VL with P43A, D92G
B18: L22 (antibody, V domains shown)
VH: EVQLLESGGGLVQPGGSLRLSCAASGFTFSSYAMGWVRQTPGKGLEWVSTISGRGGDTYYADSVKGRFTISRDNSKNTLYLQMNSLRAEDTAIYYCAKERGLGFDYWGQGTLVTVSS
VL: DIVMTQTPLSLPVTPGEPASISCRSSQSLLDSDDGNTYLDWYLQKPGQSPQLLIYTLSYRASGVPDRFSGSGSGTDFTLKISRVEAEDVGVYYCMQHLEFPLTFGGGTKVEIK
B19: E23 (antibody, V domains shown)
VH: QVQLVQSGAEVRKPGASVKVSCKASGYTFTGYYMHWVRQAPGQGLEWMGWINSYSGGANYAQKFQDRVTMTRDTSVSTASMELSRLRSDDTAVYYCARDGSGWYGSYFDFWGQGTLVTVSS
VL: DIVMTQTPLSSPVTLGQPASISCRSSQSLVHSDGNTYLSWLQQRPGQPPRLLIYKISNRFSGVPDRFSGSGAGTDFTLKISRVEAEDVGFYYCIQTTQFPLTFGGGTKVEIK
B20: F21 (antibody, V domains shown)
VH: EVQLVESGGGLVQPGGSLRLSCAASGFTFSSYWMSWVRQAPGKGLEWVANIKQDGSEKYYVDSVKGRFTISRDNAKNSLYLQMNSLRAEDTAVYYCAREWLRFGGLVYWGQGTLVTVSS
VL: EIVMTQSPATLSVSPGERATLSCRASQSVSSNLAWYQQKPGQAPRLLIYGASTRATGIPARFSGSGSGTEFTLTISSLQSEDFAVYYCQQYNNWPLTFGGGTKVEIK
B21: A18 (antibody, V domains shown)
VH: QVTLRESGPALVKSTQTLTLTCTFSGFSLSTSGMCVSWIRQTPGKALEWLALIDWDDNKYYSTSLKTRLIISKDTSKNQVVLTMTNMEPVDTATYYCARIRGYSGSYDAFDIWGQGTMVTVSS
VL: DIVMTQSPLSLPVTPGEPASISCRSSQSLLHSNGYNYLDWYLQKPGQSPHILLYLGSNRAPGVPDRFSGSGSGTDFTLKISRVEAEDVGVYYCMQALQTPFTFGPGTKVDIK
B22: B22 (antibody, V domains shown)
VH: EVQLVESGGGLVQPGGSLRLSCAASGFTFNNFWMSWVRQAPGKGLEWVANIKQDGSEKYYVDSVKGRFTISRDNAKNSLYLQMNSLRAEDTAVYYCARESYFDLWGRGTLVTVSS
VL: QAVVTQESALTTSPGETVTLTCRSSTGAVTTSNYANWVQEKPDHLFTGLIGGTNNRAPGVPARFSGSLIGDKAALTITGAQTEDEAIYFCALWYSNRWVFGGGTKLTVL
B23: I1 (antibody, V domains shown)
VH: EVQLVESGGGLVKPGGSLRLSCAASGFTFSNTWMSWVRQAPGKGLEWVGRIKSKSDGGTTDYAAPVKGRFTISRDDSKNTLYLQMNSLKTEDTAVYYCTQYYWNSFDYWGQGTLVTVSS
VL: not shown

Substitutions are numbered along the chain they refer to.

For this experiment, the target named is T1, DLL3 (target in the Fab-Zap …). In words: cell-based or functional assay.
Take B1: the “Percent Max Killing (Fab-Zap internalization assay, 10 ug/ml)” value (shortened to “Percent Max Killing”) was 68%.

Take B2: the “Percent Max Killing” value is 69.1%.

Turning to B3, the “Percent Max Killing” value is 61%.

As for B4, the “Percent Max Killing” value stood at 59.5%.

As to B5, the “Percent Max Killing” value is 65.2%.

For B6, the “Percent Max Killing” value is 68%.

Take B7: the “Percent Max Killing” value came out at 94%.

Turning to B8, the “Percent Max Killing” value stood at 71%.

B9: the “Percent Max Killing” value came out at 89%.

With B10, the “Percent Max Killing” value amounted to 80.3%.

B11: the “Percent Max Killing” value was 61.4%.

As for B12, the “Percent Max Killing” value came out at 64%.

Regarding B13, the “Percent Max Killing” value worked out at 74%.

Take B14: the “Percent Max Killing” value amounted to 86%.

In the case of B15, the “Percent Max Killing” value is 88%.

In the case of B16, the “Percent Max Killing” value worked out at 70%.

Turning to B17, the “Percent Max Killing” value amounted to 46%.

Regarding B18, the “Percent Max Killing” value came out at 82%.

In the case of B19, the “Percent Max Killing” value came to 88.7%.

As for B20, the “Percent Max Killing” value amounted to 20%.

Consider B21, for which the “Percent Max Killing” value was found to be 67%.

On to B22, for which the “Percent Max Killing” value worked out at 61.9%.

Take B23: the “Percent Max Killing” value was determined as 97%.
